Assay results taken from paper PMC10965115.
Read-outs that look alike come from different tables or passages of the source. Each block holds one molecule with its values, some of them ahead of it.

Key:
Assay in all cases: BLI
IgG1 RUBY v9 #15 (human) [1] = molecular target: IgG1 RUBY v9 #15 (human)
IgG1 mAb (human) [2] = molecular target: IgG1 mAb (human)
[3] = molecular target: IgG1 LALA RUBY #10 (human)
IgG1 LALA mAb (human) = molecular target: IgG1 LALA mAb (human)
IgG2 RUBY v9 #16 (human) [4] = molecular target: IgG2 RUBY v9 #16 (human)
IgG2 mAb (human) [5] = molecular target: IgG2 mAb (human)
[6] = molecular target: IgG1 LALA RUBY v9 #2 (human)
IgG1 RUBY v9 #15 (human) [7] = molecular target: IgG1 RUBY v9 #15 (human); remark: listed apart in the source
IgG1 mAb (human) [8] = molecular target: IgG1 mAb (human); remark: listed apart in the source
IgG2 RUBY v9 #16 (human) [9] = molecular target: IgG2 RUBY v9 #16 (human); remark: listed apart in the source
IgG2 mAb (human) [10] = molecular target: IgG2 mAb (human); remark: listed apart in the source

Molecule: mFcγRIV (from UniProt A0A0B4J1G0) (receptor)
Kd (IgG1 RUBY v9 #15 (human) [1]): 40 nM
Kd (IgG1 mAb (human) [2]): 50 nM
kon (IgG1 mAb (human) [2]): 400000 M⁻¹ s⁻¹

Molecule: hFcγRIIIa 176 V (from UniProt P08637) (receptor)
Kd (IgG1 RUBY v9 #15 (human) [1]): 30 nM
koff (IgG1 RUBY v9 #15 (human) [1]): 0.03 s⁻¹
kon (IgG1 RUBY v9 #15 (human) [1]): 1e+06 M⁻¹ s⁻¹
Kd (IgG1 mAb (human) [2]): 50 nM
koff (IgG1 mAb (human) [2]): 0.03 s⁻¹
kon (IgG1 mAb (human) [2]): 600000 M⁻¹ s⁻¹

B1: mFcγRI (receptor)
chain: EVVNATKAVITLQPPWVSIFQKENVTLWCEGPHLPGDSSTQWFINGTAVQISTPSYSIPEASFQDSGEYRCQIGSSMPSDPVQLQIHNDWLLLQASRRVLTEGEPLALRCHGWKNKLVYNVVFYRNGKSFQFSSDSEVAILKTNLSHSGIYHCSGTGRHRYTSAGVSITVKELFTTPVLRASVSSPFPEGSLVTLNCETNLLLQRPGLQLHFSFYVGSKILEYRNTSSEYHIARAEREDAGFYWCEVATEDSSVLKRSPELELQVLGPQSSAP
Kd (IgG1 RUBY v9 #15 (human) [7]): 40 nM
koff (IgG1 RUBY v9 #15 (human) [7]): 0.03 s⁻¹
kon (IgG1 RUBY v9 #15 (human) [7]): 700000 M⁻¹ s⁻¹
Kd (IgG1 mAb (human) [8]): 40 nM
koff (IgG1 mAb (human) [8]): 0.02 s⁻¹
kon (IgG1 mAb (human) [8]): 600000 M⁻¹ s⁻¹

The remaining lines, values ahead:

Kd [3]: 600 nM
koff [3]: 0.08 s⁻¹
kon [3]: 100000 M⁻¹ s⁻¹
Kd (IgG1 LALA mAb (human)): 500 nM
koff (IgG1 LALA mAb (human)): 0.1 s⁻¹
kon (IgG1 LALA mAb (human)): 200000 M⁻¹ s⁻¹
Kd (IgG1 RUBY v9 #15 (human) [1]): 600 nM
koff (IgG1 RUBY v9 #15 (human) [1]): 0.08 s⁻¹
kon (IgG1 RUBY v9 #15 (human) [1]): 100000 M⁻¹ s⁻¹
Kd (IgG1 mAb (human) [2]): 500 nM
koff (IgG1 mAb (human) [2]): 0.05 s⁻¹
kon (IgG1 mAb (human) [2]): 100000 M⁻¹ s⁻¹
Kd (IgG2 RUBY v9 #16 (human) [4]): 1000 nM
koff (IgG2 RUBY v9 #16 (human) [4]): 0.2 s⁻¹
kon (IgG2 RUBY v9 #16 (human) [4]): 200000 M⁻¹ s⁻¹
Kd (IgG2 mAb (human) [5]): 600 nM
koff (IgG2 mAb (human) [5]): 0.1 s⁻¹
kon (IgG2 mAb (human) [5]): 200000 M⁻¹ s⁻¹
Molecule: recombinant human FcRn (from UniProt P55899) (receptor)

Kd [6]: 40 nM
Molecule: hFcγRI (from UniProt P12314) (receptor)

Kd (IgG1 mAb (human) [2]): 300 nM
Molecule: hFcγRIIa (from UniProt P12318) (receptor)

Kd [3]: 70 nM
koff [3]: 0.007 s⁻¹
kon [3]: 100000 M⁻¹ s⁻¹
Molecule: recombinant mouse FcRn (from UniProt Q61559) (receptor)

Kd (IgG1 RUBY v9 #15 (human) [7]): 10 nM
koff (IgG1 RUBY v9 #15 (human) [7]): 0.01 s⁻¹
kon (IgG1 RUBY v9 #15 (human) [7]): 700000 M⁻¹ s⁻¹
Kd (IgG1 mAb (human) [8]): 20 nM
koff (IgG1 mAb (human) [8]): 0.006 s⁻¹
kon (IgG1 mAb (human) [8]): 400000 M⁻¹ s⁻¹
Kd (IgG2 RUBY v9 #16 (human) [9]): 10 nM
koff (IgG2 RUBY v9 #16 (human) [9]): 0.006 s⁻¹
kon (IgG2 RUBY v9 #16 (human) [9]): 600000 M⁻¹ s⁻¹
Kd (IgG2 mAb (human) [10]): 10 nM
koff (IgG2 mAb (human) [10]): 0.008 s⁻¹
kon (IgG2 mAb (human) [10]): 700000 M⁻¹ s⁻¹
B2: mFcγRIII (receptor)
chain: ALPKAVVKLDPPWIQVLKEDMVTLMCEGTHNPGNSSTQWFHNGRSIRSQVQASYTFKATVNDSGEYRCQMEQTRLSDPVDLGVISDWLLLQTPQRVFLEGETITLRCHSWRNKLLNRISFFHNEKSVRYHHYKSNFSIPKANHSHSGDYYCKGSLGSTQHQSKPVTITVQDPATTSSISLVWYHT
